Assay [1] concerns the target rat VEGFR2 (rat, UniProt O08775 20-760, limits assumed). The experiment in a line: Biacore, rat VEGFR2.
The target of assay [2] is T1, murine VEGFR2 (soluble mVEGFR2) (murine, UniProt P35918 20-762).
T1 construct: also called mouse VEGFR2
Description: Biacore, murine VEGFR2. Background: Surface plasmon resonance follows binding to a sensor surface in real time, without labels.

Assay [3] concerns the target T2, human VEGFR2 (soluble hVEGFR2) (human, UniProt P35968 20-764).
T2 construct: also called KDR
The experiment in a line: Biacore, human VEGFR2.

Broadly, the koff is a measure of how fast the partners let go of each other. Read a low koff as a long-lived complex. What is called kon is a measure of how fast the partners come together. Read a low kon as slow association.

T1 sequence (P35918 20-762 limits assumed): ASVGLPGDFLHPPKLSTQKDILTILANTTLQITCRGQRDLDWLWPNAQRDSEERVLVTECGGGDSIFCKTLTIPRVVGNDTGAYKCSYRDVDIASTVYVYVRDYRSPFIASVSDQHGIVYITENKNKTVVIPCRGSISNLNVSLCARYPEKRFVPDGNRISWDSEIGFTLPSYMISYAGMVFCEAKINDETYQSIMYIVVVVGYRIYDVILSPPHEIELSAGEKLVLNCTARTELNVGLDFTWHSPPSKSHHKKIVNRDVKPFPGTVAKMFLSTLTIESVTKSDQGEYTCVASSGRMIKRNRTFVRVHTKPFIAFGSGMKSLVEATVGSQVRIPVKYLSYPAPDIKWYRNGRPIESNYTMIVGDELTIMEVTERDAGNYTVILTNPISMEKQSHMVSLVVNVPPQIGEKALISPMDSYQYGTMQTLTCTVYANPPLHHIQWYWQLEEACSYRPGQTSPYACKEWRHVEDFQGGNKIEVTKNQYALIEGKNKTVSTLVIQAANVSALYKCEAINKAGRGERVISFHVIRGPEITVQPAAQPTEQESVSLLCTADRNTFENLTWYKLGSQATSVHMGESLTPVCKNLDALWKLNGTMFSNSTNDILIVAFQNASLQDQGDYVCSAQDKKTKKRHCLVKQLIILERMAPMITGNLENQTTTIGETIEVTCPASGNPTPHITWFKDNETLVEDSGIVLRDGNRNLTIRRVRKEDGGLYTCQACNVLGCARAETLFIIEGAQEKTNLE
rat VEGFR2, sequence (O08775 20-760 limits assumed): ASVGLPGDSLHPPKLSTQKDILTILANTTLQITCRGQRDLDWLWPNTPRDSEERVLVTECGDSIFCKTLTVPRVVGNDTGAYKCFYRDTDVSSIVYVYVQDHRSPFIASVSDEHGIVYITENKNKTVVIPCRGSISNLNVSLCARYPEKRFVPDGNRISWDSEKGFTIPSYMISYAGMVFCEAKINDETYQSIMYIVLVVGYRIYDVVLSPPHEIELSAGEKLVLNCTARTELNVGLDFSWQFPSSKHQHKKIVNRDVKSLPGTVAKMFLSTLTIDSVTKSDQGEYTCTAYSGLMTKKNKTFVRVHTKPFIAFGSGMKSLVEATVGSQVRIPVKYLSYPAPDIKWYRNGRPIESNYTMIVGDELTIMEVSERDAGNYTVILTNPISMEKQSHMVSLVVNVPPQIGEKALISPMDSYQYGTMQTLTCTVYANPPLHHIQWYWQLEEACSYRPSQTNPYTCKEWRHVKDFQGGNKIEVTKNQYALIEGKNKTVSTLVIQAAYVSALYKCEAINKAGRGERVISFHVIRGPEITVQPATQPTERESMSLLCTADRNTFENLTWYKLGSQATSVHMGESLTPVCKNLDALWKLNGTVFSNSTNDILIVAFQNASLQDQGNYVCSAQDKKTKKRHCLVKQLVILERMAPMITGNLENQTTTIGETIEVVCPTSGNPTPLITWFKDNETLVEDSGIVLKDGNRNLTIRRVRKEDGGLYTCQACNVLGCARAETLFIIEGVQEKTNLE
T2 sequence (P35968 20-764 limits assumed): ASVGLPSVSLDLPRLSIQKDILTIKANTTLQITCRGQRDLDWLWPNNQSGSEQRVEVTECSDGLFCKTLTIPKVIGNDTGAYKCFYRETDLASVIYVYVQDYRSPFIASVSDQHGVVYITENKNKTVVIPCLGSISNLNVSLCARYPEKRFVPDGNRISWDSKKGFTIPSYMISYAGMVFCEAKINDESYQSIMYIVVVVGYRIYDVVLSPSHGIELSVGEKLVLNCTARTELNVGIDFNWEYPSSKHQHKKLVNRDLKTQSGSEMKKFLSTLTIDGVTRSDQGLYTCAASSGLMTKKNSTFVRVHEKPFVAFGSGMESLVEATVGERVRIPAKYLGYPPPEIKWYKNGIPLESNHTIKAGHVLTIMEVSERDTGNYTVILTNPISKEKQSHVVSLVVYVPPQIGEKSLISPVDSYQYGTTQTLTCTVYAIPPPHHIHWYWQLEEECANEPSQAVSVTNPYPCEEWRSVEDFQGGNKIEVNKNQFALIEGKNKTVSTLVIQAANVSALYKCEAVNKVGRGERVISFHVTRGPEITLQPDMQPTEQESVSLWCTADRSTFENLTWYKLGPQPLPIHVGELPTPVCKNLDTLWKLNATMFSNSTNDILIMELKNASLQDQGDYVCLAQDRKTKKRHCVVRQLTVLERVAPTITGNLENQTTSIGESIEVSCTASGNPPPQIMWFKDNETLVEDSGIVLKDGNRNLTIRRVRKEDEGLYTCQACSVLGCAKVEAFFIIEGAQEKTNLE

B1: Mab 149 (B1C4_E5) (antibody, V domains shown)
VH: EVQLLESGGGLVQPGGSLRLSCAASGFTFSWYVMGWVRQAPGKGLEWVSSIYPSGGATNYADSVKGRFTISRDNSKNTLYLQMNSLRAEDTAVYYCARGNYLDYWGQGTLVTVSS
VL: DIQMTQSPGTLSLSPGEGATLSCRASQSVSSNYFGWYQQKPGQAPRLLIYGASSRATGIPDRFSGSGSGTDFTLTISRLEPEDSAVYYCQQFDSSPLSFGGGTKVEIKR
In the case of B1, the values for the koff in assay [1], in assay [2] and in assay [3] were 0.00143 s⁻¹, 0.00181 s⁻¹ and 0.000659 s⁻¹, respectively. Besides, the values for the kon in assay [1], in assay [2] and in assay [3] were 33200 M⁻¹ s⁻¹, 22900 M⁻¹ s⁻¹ and 86200 M⁻¹ s⁻¹, respectively.

B2: Mab 147 (B1C4_A7) (antibody, V domains shown)
VH: EVQLLESGGGLVQPGGSLRLSCAASGFTFSWYVMGWVRQAPGKGLEWVSSIYPQGGATSYADSVKGRFTISRDNSKNTLYLQMNSLRAEDTAVYYCARGNYFDYWGQGTLVTVSS
VL: DIQMTQSPGTLSLSPGEGATLSCRASQSVSSNYFGWYQQKPGQAPRLLIYGASSRATGIPDRFSGSGSGTDFTLTISRLEPEDSAVYYCQQFDSLPLTFGGGTKVEIKR
On to B2, for which the koff in assay [1] amounted to 0.000899 s⁻¹; in assay [2], 0.00128 s⁻¹; in assay [3] it was 0.000282 s⁻¹. For the same molecule, the kon in assay [1] was found to be 64500 M⁻¹ s⁻¹; in assay [2] it was 43800 M⁻¹ s⁻¹; in assay [3], 113000 M⁻¹ s⁻¹.

The values above are taken from patent US20180250392A1 (published 2018).
